In patent US20220089770A1 (Chugai, published 2022):

T1: human XPR1-Myc (human, UniProt Q9UBH6 1-696)
T1 sequence: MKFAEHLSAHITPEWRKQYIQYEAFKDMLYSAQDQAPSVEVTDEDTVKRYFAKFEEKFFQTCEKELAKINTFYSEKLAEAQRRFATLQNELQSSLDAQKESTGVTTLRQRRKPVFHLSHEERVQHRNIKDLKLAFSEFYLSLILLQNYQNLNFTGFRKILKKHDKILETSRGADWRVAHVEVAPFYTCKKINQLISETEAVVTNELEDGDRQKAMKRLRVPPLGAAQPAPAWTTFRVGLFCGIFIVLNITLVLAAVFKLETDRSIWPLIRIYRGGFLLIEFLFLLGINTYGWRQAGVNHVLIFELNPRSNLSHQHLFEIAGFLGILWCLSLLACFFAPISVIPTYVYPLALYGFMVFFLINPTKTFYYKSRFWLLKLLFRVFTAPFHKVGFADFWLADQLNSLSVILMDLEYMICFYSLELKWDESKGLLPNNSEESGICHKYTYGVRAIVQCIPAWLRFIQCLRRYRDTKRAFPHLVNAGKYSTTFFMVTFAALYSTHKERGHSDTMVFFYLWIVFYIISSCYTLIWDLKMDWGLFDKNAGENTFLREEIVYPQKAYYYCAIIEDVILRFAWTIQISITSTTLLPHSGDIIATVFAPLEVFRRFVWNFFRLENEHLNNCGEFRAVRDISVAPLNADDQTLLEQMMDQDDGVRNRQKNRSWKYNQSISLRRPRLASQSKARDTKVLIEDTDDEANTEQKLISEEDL

T2: Myc-human MARVELD3 (human, UniProt Q96A59 2-401)
T2 construct: also called human MARVELD3 isoform2; MARVELD3 isoform2
T2 sequence: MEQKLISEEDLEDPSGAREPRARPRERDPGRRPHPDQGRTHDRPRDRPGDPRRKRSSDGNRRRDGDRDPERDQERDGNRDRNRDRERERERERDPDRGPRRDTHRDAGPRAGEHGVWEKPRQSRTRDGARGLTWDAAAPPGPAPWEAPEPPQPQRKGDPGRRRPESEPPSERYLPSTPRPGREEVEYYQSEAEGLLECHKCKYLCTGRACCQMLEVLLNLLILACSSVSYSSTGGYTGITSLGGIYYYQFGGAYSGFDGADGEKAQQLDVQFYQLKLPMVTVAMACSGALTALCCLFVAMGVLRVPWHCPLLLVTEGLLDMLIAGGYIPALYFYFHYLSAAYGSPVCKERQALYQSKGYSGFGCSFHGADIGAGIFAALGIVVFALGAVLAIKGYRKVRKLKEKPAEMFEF

B1: XPB0062 (antibody, V domains shown)
VH: QSLEESGGDLVKPGASLTLTCTASGFSFSSSYWICWVRQAPGKGLEWIACINAGNSGSTYYASWAKGRFTISKTSSTTVTLQMTSLTAADTATYFCARGSYSYGYVGYVYTTSTRLDLWGQGTLVTVSS
VL: DVVMTQTPASVSEPVGGTVTIKCQASQNIGSDLAWYQQKPGQPPKLLIYRASTLASGVSSRFKGSGSGTQFTLTISDLECADAATYYCQCTYYGSIYVPNAFGGGTEVVVK
notes: Rabbit variable regions inserted into an expression vector containing the IgG constant regions (recombinant antibody); detected with anti-human IgG Fc; also called anti-human XPR1 antibody
B2: MDA0279 (antibody, V domains shown)
VH: QSLEESGGDLVKPGGTLTLTCTASGFSFSDWYWVGWVRQAPGKGLEWIGCIVTGNGHTYYASWAKGRFTISKTSSTTVTLQLNSLTAADTATYFCARGVGASRYALWGPGTLVTVSS
VL: IVMTQTPSSKSVPVGDTVTINCQASESVASNWLSWYQQKPGQPPKLLIYFASTLASGVPSRFKGSGSGTQFTLTISDVVCDDAATYYCAGYKSDTTDGTAFGGGTEVVVK
notes: Rabbit variable regions inserted into an expression vector containing the IgG constant regions; detected with anti-human IgG Fc; also called anti-human MARVELD3 isoform2 antibody
B3: MDA0314 (antibody, V domains shown)
VH: QSLEESGGRLVTPGTPLTLTCTASGFSLSYYFMTWVRQAPGKGLEYIGIIRVDGSGYYATWAKGRFTISRTSTTVELKITSPTTEDTATYFCARVGDWAFNIWGPGTLVTVSS
VL: IKMTQTPASVSTAVGGTVSINCQASEDIESYLAWFQQKPGQRPKLLIYRASTLASGVSSRFKGSGSGTEFTLTISGVECADAATYYCQQGHTINNIDNVFGGGTEVVVK
notes: as for B2
B4: NXA0125 (antibody, V domains shown)
VH: QEQLEESGGDLVKPGASLTLTCTASGFSFNSNYFMCWVRQAPGKGLEWIACIYTGSSGGTYYATWAKGRFTISKTSSTTVTLQMTSLTAADTATYFCAGDTMTIPFNLWGPGTLVTVSS
VL: QVLTQTASPVSAPVGGTVTINCQASQSVYNNNNLHWFQQKPGQRPKLLIYFASTLASGVSSRFKGSGSGTQFTLTISGVQCDDAATYYCQGEFSCSSADCNAFGGGTEVVVK
notes: Rabbit variable regions inserted into an expression vector containing IgG constant regions; detected with anti-human IgG Fc; also called anti-human NOX1 antibody
B5: NXA0164 (antibody, V domains shown)
VH: QSVEESGGRLVTPGTPLTLTCTVSGFSLSNYAMSWVRQAPGKGLEWIGIISSSGSTYYASWAKGRFTISKTSTTVDLKITSPTTEDTATYFCARDLDASTGTDIWGPGTLVTVSS
VL: AVLTQTPSPVSAAVGGTVTINCQASQSVYSNNYLSWFQQKPGQPPKLLIYKASTLASGVPSRFKGSGSGTQFTLTISDVQCDDAATYYCAGDYKSSSDIRAFGGGTEVVVK
notes: as for B4

How the values were obtained:
human XPR1-Myc = biological target: T1, human XPR1-Myc; assay: flow cytometry on Expi293 cells transiently expressing human XPR1-Myc against cells with empty vector; anti-human IgG Fc Alexa488
Protocol: A plasmid vector expressing in mammalian cells full-length human XPR1 (amino acid SEQ ID NO: 1) with a Myc tag sequence ([…], SEQ ID NO: 25) added to the C-terminus (human XPR1-Myc, nucleotide SEQ ID NO: 26, amino acid SEQ ID NO: 27) was constructed. The protein was transiently expressed in Expi293 cells (Thermo Fisher Scientific) by introducing the constructed plasmid vector into Expi293 cells. At the same time, Expi293 cells transfected with an empty plasmid vector were also prepared as a control. The Expi293 cells transfected with an empty plasmid vector were stained with CellTrace FarRed (Thermo Fisher Scientific) and then mixed with the Expi293 cells made to express human XPR1-Myc, and subsequently reacted with the anti-human XPR1 antibody prepared in Example 6. […] The cells reacted with the antibody were measured by FACS Aria III (Becton, Dickinson and Company). The obtained data were analyzed by FlowJo ver.10. The live cell fraction, which was not stained with DAPI fluorescence, was separated into a fraction that was stained with CellTrace FarRed (cells transfected with the empty plasmid vector) and a fraction that was not stained with CellTrace FarRed (cells transfected with the human XPR1-Myc expression plasmid vector), and Alexa488 staining for each fraction was examined.

Myc-human MARVELD3 = biological target: T2, Myc-human MARVELD3; assay: flow cytometry on Expi293 cells transiently expressing Myc-human MARVELD3 isoform2 against cells with empty vector; anti-human IgG Fc Alexa488
Text: A plasmid vector that expresses, in mammalian cells, a molecule (Myc-human MARVELD3, nucleotide SEQ ID NO: 29, amino acid SEQ ID NO: 30) in which the Myc tag sequence ([…], SEQ ID NO: 25) has been added after the N-terminal methionine of full-length human MARVELD3 isoform2 (amino acid SEQ ID NO: 4), was introduced into Expi293 cells (Thermo Fisher Scientific), and the protein was transiently expressed in the Expi293 cells. At the same time, Expi293 cells transfected with an empty plasmid vector were also prepared as a control. The Expi293 cells transfected with an empty plasmid vector were stained with CellTrace FarRed (Thermo Fisher Scientific) and then mixed with the Expi293 cells made to express human MARVELD3 isoform2, and subsequently reacted with an anti-human MARVELD3 isoform2 antibody prepared in Example 9. […] The cells reacted with the antibody were measured by FACS Aria III (Becton, Dickinson and Company). The obtained data were analyzed by FlowJo ver.10. The live cell fraction, which was not stained with DAPI fluorescence, was separated into a fraction that was stained with CellTrace FarRed (cells transfected with the empty plasmid vector) and a fraction that was not stained with CellTrace FarRed (cells transfected with the human XPR1-Myc expression plasmid vector), and Alexa488 staining for each fraction was examined.

human NOX1-Strep = human NOX1-Strep (human, UniProt Q9Y5S8 1-564); assay: flow cytometry on fixed, digitonin-treated Expi293 cells expressing human NOX1-Strep against cells with empty vector; anti-human IgG Fc Alexa488
Protocol: (§1) A plasmid vector expressing human NOX1-Strep (amino acid SEQ ID NO: 34) or a plasmid vector expressing NOX1_Nx1B_564-myc (amino acid SEQ ID NO: 33) was introduced into Expi293 cells (Thermo Fisher Scientific) to express the protein transiently. At the same time, Expi293 cells transfected with an empty plasmid vector were also prepared as a control. These cells were treated with 4% paraformaldehyde and 1% digitonin. The Expi293 cells transfected with an empty plasmid vector were stained with CellTrace FarRed (Thermo Fisher Scientific), the Expi293 cells transfected with the plasmid vector expressing human NOX1-Strep were stained with CellTrace FarRed and CellTrace Violet (Thermo Fisher Scientific), and then mixed with the Expi293 cells made to express NOX1_Nx1B_564-myc. Subsequently, the cells were reacted with an anti-human NOX1 antibody prepared in Example 13.
(§2) Then, anti-human IgG Fc cross-adsorbed Alexa488 (Invitrogen) was reacted to stain the anti-human NOX1 antibody. The cells reacted with the antibody were measured by FACS Aria III (Becton, Dickinson and Company). The obtained data were analyzed by FlowJo ver.10.

NOX1_Nx1B_564-myc = biological target: T3, NOX1_Nx1B_564-myc (human); assay: flow cytometry on fixed, digitonin-treated Expi293 cells expressing NOX1_Nx1B_564-myc against cells with empty vector; anti-human IgG Fc Alexa488
T3 construct: Expressed in Expi293 cells treated with 4% paraformaldehyde and 1% digitonin before staining; also called human NOX1
Protocol: as §1, §2

human NOX1-Strep, sequence (Q9Y5S8 other isoform, or with tags, fused parts or gaps): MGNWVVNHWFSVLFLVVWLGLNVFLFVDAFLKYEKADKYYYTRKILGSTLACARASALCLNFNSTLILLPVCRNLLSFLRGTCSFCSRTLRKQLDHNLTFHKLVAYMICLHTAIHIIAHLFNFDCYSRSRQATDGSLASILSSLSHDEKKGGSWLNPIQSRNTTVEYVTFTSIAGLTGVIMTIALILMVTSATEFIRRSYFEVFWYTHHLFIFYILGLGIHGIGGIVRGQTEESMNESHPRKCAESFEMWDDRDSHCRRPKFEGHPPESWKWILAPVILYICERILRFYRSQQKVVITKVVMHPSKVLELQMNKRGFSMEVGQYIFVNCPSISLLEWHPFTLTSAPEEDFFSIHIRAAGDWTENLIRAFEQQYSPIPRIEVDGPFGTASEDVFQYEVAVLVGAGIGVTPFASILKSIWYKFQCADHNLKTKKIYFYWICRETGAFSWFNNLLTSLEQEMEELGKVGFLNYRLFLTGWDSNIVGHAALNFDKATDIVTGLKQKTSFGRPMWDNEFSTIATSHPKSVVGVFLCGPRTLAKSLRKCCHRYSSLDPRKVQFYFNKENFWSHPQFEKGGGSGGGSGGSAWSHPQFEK
T3 sequence (chain, as listed by the source limits assumed): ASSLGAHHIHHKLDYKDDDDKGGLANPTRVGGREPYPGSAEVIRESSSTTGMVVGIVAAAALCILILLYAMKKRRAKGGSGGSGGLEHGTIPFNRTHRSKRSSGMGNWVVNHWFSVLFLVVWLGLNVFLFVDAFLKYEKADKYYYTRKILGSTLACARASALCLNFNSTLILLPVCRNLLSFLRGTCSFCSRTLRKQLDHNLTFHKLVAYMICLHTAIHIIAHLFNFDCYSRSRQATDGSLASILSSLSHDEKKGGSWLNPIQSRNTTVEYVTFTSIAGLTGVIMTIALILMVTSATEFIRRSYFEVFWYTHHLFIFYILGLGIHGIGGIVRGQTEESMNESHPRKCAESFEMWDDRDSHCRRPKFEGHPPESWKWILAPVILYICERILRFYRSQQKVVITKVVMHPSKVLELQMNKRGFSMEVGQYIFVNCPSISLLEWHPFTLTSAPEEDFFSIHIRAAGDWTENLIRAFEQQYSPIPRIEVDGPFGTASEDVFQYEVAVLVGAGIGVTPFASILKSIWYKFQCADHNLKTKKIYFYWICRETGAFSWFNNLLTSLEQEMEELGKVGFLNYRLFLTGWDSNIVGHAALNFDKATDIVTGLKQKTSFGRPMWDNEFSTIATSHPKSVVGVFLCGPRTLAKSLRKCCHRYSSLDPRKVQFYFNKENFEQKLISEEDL

Binder | binding result (human XPR1-Myc) | binding result (Myc-human MARVELD3) | binding result (human NOX1-Strep) | binding result (NOX1_Nx1B_564-myc)
B1 | binds |  |  | 
B2 |  | binds |  | 
B3 |  | binds |  | 
B4 |  |  | binds | binds
B5 |  |  | binds | binds
